# Measurements: patent US12070483B2, “Compositions and methods for treatment of acute lung injury” (THE TRUSTEES OF THE UNIVERSITY OF PENNSYLVANIA, priority 2018, dated 2024)
# Columns and labels:
# [1] = test system: mouse models of LPS-induced ALI; conditions: previous studies; cited from earlier work
# Prdx6 = target: T1, Prdx6 (Mus musculus, UniProt O08709); assay: aiPLA2 (Prdx6-PLA2) activity of mouse lung homogenate after IT or IV injection of PIP; type: in vivo; conditions: Table 6
# T1 construct: from tissue; host or cells: mouse lung homogenate (wild type mice)
# T1 sequence (O08709 1-224): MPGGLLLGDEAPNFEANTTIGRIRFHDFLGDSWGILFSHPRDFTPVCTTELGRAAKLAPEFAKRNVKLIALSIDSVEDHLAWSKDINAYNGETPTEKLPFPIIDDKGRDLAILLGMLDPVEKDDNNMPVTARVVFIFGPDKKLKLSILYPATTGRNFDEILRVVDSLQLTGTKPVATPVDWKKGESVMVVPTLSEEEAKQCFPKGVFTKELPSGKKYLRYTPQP
# Procedure: FIG. 6: PIP-2 in liposomes was administered to mice either intratracheally (IT) or intravenously (IV) at 0 time. Lungs were harvested at intervals between 4 and 72 h after the PIP-2 administration, homogenized, and analyzed for Prdx6-PLA2 activity. PIP-2 is effective by either the IT or IV route with a calculated ½ time for recovery of ˜50 h. Results are mean+SE for N=3-4.
# PIP-2 in liposomes injected IV or IT inhibits Prdx6 activity of the lung homogenate. Maximal inhibition was seen within 4 hours after administration of PIP-2. Recovery from inhibition began at ˜36 hours and was complete by 48 hours. Results are similar for PIP-1,2,4 (PIP-3 and -5 were not tested). […] Effectiveness requires liposomes for peptide delivery. Inhibition after IT or IV administration was similar.
# recombinant hPrdx6 = target: T2, recombinant hPrdx6 (Homo sapiens, UniProt P30041); assay: aiPLA2 activity of recombinant human Prdx6 in presence of peptide; type: biochemical; conditions: for aiPLA2 activity of recombinant hPrdx6: Table 1, hPrdx6 only (no peptide) 93.4; for aiPLA2 activity of human recombinant protein: Table 2, hPrdx6 only 92.0; for aiPLA2 activity of human recombinant Prdx6: Table 3, hPrdx6 only 99.91
# T2 sequence (P30041 1-224): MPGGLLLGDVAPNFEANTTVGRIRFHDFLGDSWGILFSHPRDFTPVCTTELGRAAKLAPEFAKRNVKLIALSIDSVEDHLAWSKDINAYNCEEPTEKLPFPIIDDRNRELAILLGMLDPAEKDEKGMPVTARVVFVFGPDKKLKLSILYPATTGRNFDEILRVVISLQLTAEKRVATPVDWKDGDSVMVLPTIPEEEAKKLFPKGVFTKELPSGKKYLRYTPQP
# NOX2 = assay: ROS production (Amplex red) of isolated perfused mouse lung stimulated with angiotensin II; type: in vivo; conditions: mouse, ex_vivo
# Procedure: FIGS. 5A and 5B: PIP-2, incorporated within liposomes, was instilled intratracheally prior to lung isolation. FIG. 5A: Isolated lungs were perfused in a recirculating system with artificial medium. NOX2 activity was stimulated by addition of angiotensin II (Ang II). Amplex red along with horseradish peroxidase were added to the perfusate for detection of ROS production. Aliquots of perfusate were analyzed at intervals by spectrophotometry to determine oxidation of amplex red, indicating ROS production. Results are mean±SE for N=3-4. FIG. 5B: Mice were sacrificed at 6, 12, or 24 h after LPS administration ([…]) and lungs were perfused in situ for 15 min with saline solution containing a fluorophore (difluorofluorescein diacetate, DFFDA). Lungs then were homogenized and fluorescence of the lung homogenate was determined as an index of ROS production. Results for FIG. 5A & FIG. 5B are mean±SE for N=4. *P<0.05 vs corresponding LPS and LPS+PIP-2; § P<0.05 vs 12 h and 24 h LPS; ΔP<0.05 vs corresponding LPS.
# FIG. 8: PLA2 inhibitory peptide (PIP-2) inhibits ROS production stimulated by angiotensin II (Ang II) in isolated perfused mouse lung. PIP-2 (2 μg/g body weight) was administered to intact wild type (WT) mice by the IV route. […] After 30 mins, lungs were isolated from anesthesized mice and perfused in a recirculating system with added Ang II ([…]) as a Nox2 activator and Amplex red plus horseradish peroxidase to detect perfusate ROS. WT basal lungs were not stimulated with Ang II. After a 15 min equilibration period (called zero time), aliquots were taken at 15 min intervals for analysis of fluorescence. Each plotted point represents the mean±SE for n=3. The lines were drawn by the least mean squares method. The mean rates of ROS […] calculated from the slope of each line are indicated in parentheses. *P<0.05 vs the other 3 slopes.
# FIG. 10: Effect of liposome composition on delivery of PIP-2 to lungs after IV administration. […]
# The effect of the PIPs on ROS production in control (untreated) lungs was determined in vitro with isolated perfused lungs. […] The basal rate of ROS production was evaluated with WT lungs that were perfused in the absence of AngII. […] Aliquots of perfusate were taken at 15 min intervals and analyzed by fluorescence for resorufin (λexcitation 568 nm, λemission 581 nm), the product of Amplex red oxidation. The rate of Amplex red oxidation was calculated and expressed as arbitrary fluorescence units (AFU) with normalization to mouse body wt. There was a low rate of Amplex red oxidation in the absence of HRP in the perfusate (˜7% of the AngII-stimulated fluorescence), indicating a non-ROS-mediated oxidation of the fluorophore; this value was subtracted to obtain the reported values.
Compound,aiPLA2 activity of recombinant hPrdx6 (recombinant hPrdx6),aiPLA2 activity of human recombinant Prdx6 (recombinant hPrdx6),further results
CCCCCCCCCCCCCCCCOCC(COCC(F)(F)F)OP(=O)(O)OC (centres unmarked) [MJ33],–,–,protection in LPS-induced ALI [1]: protection
"DEELQATLHDFRHQIL (Inhibitory peptide.) [PIP-1, 16 residue human peptide]",45.0 nmol/min/mg prot.,–,"Prdx6-PLA2 activity of mouse lung homogenate (Prdx6; IT, lungs lavaged prior to assay, 0 post injection): 9.0 ± 0.2 nmol/hr/mg protein; Prdx6-PLA2 activity of mouse lung homogenate (Prdx6; IT, lungs lavaged, 4 hr post injection): 1.6 ± 0.1 nmol/hr/mg protein; Prdx6-PLA2 activity of mouse lung homogenate (Prdx6; IT, lungs lavaged, 12 hr post injection): 1.6 ± 0.1 nmol/hr/mg protein; Prdx6-PLA2 activity of mouse lung homogenate (Prdx6; IT, lungs lavaged, 24 hr post injection): 1.7 ± 0.2 nmol/hr/mg protein; Prdx6-PLA2 activity of mouse lung homogenate (Prdx6; IT, lungs lavaged, 48 hr post injection): 2.9 ± 0.2 nmol/hr/mg protein; Prdx6-PLA2 activity of mouse lung homogenate (Prdx6; IV, 0 post injection): 8.8 ± 0.3 nmol/hr/mg protein; Prdx6-PLA2 activity of mouse lung homogenate (Prdx6; IV, 4 hr post injection): 1.4 nmol/hr/mg protein; Prdx6-PLA2 activity of mouse lung homogenate (Prdx6; IV, 12 hr post injection): 1.5 nmol/hr/mg protein; Prdx6-PLA2 activity of mouse lung homogenate (Prdx6; IV, 24 hr post injection): 1.8 ± 0.1 nmol/hr/mg protein"
DEELQTEL [SEQ ID NO: 18],93.6 nmol/min/mg prot.,–,–
DEELQTELYEI (Inhibitory peptide.) [SEQ ID NO: 17],94.9 nmol/min/mg prot.,–,–
DEELQTELYEIK (Inhibitory peptide.) [SEQ ID NO: 16],95.7 nmol/min/mg prot.,–,–
DEELQTELYEIKHQ (Inhibitory peptide.) [SEQ ID NO: 15],102 nmol/min/mg prot.,–,–
"DEELQTELYEIKHQIL (Inhibitory peptide.) [PIP-3, 16 residue rat, mouse peptide]",32.0 nmol/min/mg prot.,–,aiPLA2 activity of recombinant hPrdx6 (recombinant hPrdx6; listed as SEQ ID NO: 9): 20.1 nmol/min/mg prot.; aiPLA2 activity of human recombinant protein (recombinant hPrdx6): 32.0 nmol/min/mg prot.
ELQTELYEIKHQIL (Inhibitory peptide.) [SEQ ID NO: 10],33.2 nmol/min/mg prot.,–,–
ELYEIKHQI (Inhibitory peptide.) [SEQ ID NO: 22],–,–,aiPLA2 activity of human recombinant protein (recombinant hPrdx6): 93.5 nmol/min/mg prot.
ELYEIKHQIL (Inhibitory peptide.) [SEQ ID NO: 12],28.6 nmol/min/mg prot.,–,–
IKHQIL (DEELQTELYEIKHQ; Inhibitory peptide.) [SEQ ID NO: 14],97.1 nmol/min/mg prot.,–,–
LFKLEHQIL [SN023],–,97.95 nmol/min/mg prot.,–
LHDFRDQIL [SN024],–,102.04 nmol/min/mg prot.,–
LHDFRHNIL [SN026],–,98.97 nmol/min/mg prot.,–
LHDFRHQI [SEQ ID NO: 21],–,–,aiPLA2 activity of human recombinant protein (recombinant hPrdx6): 93.6 nmol/min/mg prot.
LHDFRHQLL (LHDFRHQTL; Inhibitory peptide.) [SN028],–,102.45 nmol/min/mg prot.,–
LHDFRPQIL [SN025],–,101.34 nmol/min/mg prot.,–
LHEFKHQIL [SN022],–,99.42 nmol/min/mg prot.,–
LKIEYHQIL [SN019],–,97.67 nmol/min/mg prot.,–
LRFDHHQIL [SN020],–,98.97 nmol/min/mg prot.,–
LYDIRHQIL (Inhibitory peptide.) [PIP-5],–,29.74 nmol/min/mg prot.,ROS production by AngII-activated NOX2 in the isolated mouse lung (NOX2): inhibit ROS production
LYEIKHQI [SEQ ID NO: 23],–,–,aiPLA2 activity of human recombinant protein (recombinant hPrdx6): 92.1 nmol/min/mg prot.
QTELYEIKHQIL (Inhibitory peptide.) [SEQ ID NO: 11],31.5 nmol/min/mg prot.,–,–
TLHDFRHQI (Inhibitory peptide.) [SEQ ID NO: 20],–,–,aiPLA2 activity of human recombinant protein (recombinant hPrdx6): 89.6 nmol/min/mg prot.
TLHDFRHQIL (Inhibitory peptide.) [SEQ ID NO: 19],–,–,aiPLA2 activity of human recombinant protein (recombinant hPrdx6): 31.5 nmol/min/mg prot.
YEIKHQIL (Inhibitory peptide.) [SEQ ID NO: 13],94.4 nmol/min/mg prot.,–,–
